B1: Phospholipid-transporting ATPase VB (Homo sapiens), O94823-1 (parent)
chain: MALSVDSSWHRWQWRVRDGFPHCPSETTPLLSPEKGRQSYNLTQQRVVFPNNSIFHQDWEEVSRRYPGNRTCTTKYTLFTFLPRNLFEQFHRWANLYFLFLVILNWMPSMEVFHREITMLPLAIVLFVIMIKDGMEDFKRHRFDKAINCSNIRIYERKEQTYVQKCWKDVRVGDFIQMKCNEIVPADILLLFSSDPNGICHLETASLDGETNLKQRCVVKGFSQQEVQFEPELFHNTIVCEKPNNHLNKFKGYMEHPDQTRTGFGCESLLLRGCTIRNTEMAVGIVIYAGHETKAMLNNSGPRYKRSKIERRMNIDIFFCIGILILMCLIGAVGHSIWNGTFEEHPPFDVPDANGSFLPSALGGFYMFLTMIILLQVLIPISLYVSIELVKLGQVFFLSNDLDLYDEETDLSIQCRALNIAEDLGQIQYIFSDKTGTLTENKMVFRRCTIMGSEYSHQENAKRLETPKELDSDGEEWTQYQCLSFSARWAQDPATMRSQKGAQPLRRSQSARVPIQGHYRQRSMGHRESSQPPVAFSSSIEKDVTPDKNLLTKVRDAALWLETLSDSRPAKASLSTTSSIADFFLALTICNSVMVSTTTEPRQRVTIKPSSKALGTSLEKIQQLFQKLKLLSLSQSFSSTAPSDTDLGESLGANVATTDSDERDDASVCSGGDSTDDGGYRSSMWDQGDILESGSGTSLEEALEAPATDLARPEFCYEAESPDEAALVHAAHAYSFTLVSRTPEQVTVRLPQGTCLTFSLLCTLGFDSVRKRMSVVVRHPLTGEIVVYTKGADSVIMDLLEDPACVPDINMEKKLRKIRARTQKHLDLYARDGLRTLCIAKKVVSEEDFRRWASFRREAEASLDNRDELLMETAQHLENQLTLLGATGIEDRLQEGVPDTIATLREAGIQLWVLTGDKQETAVNIAHSCRLLNQTDTVYTINTENQETCESILNCALEELKQFRELQKPDRKLFGFRLPSKTPSITSEAVVPEAGLVIDGKTLNAIFQGKLEKKFLELTQYCRSVLCCRSTPLQKSMIVKLVRDKLRVMTLSIGDGANDVSMIQAADIGIGISGQEGMQAVMSSDFAITRFKHLKKLLLVHGHWCYSRLARMVVYYLYKNVCYVNLLFWYQFFCGFSSSTMIDYWQMIFFNLFFTSLPPLVFGVLDKDISAETLLALPELYKSGQNSECYNLSTFWISMVDAFYQSLICFFIPYLAYKGSDIDVFTFGTPINTISLTTILLHQAMEMKTWTIFHGVVLLGSFLMYFLVSLLYNATCVICNSPTNPYWVMEGQLSNPTFYLVCFLTPVVALLPRYFFLSLQGTCGKSLISKAQKIDKLPPDKRNLEIQSWRSRQRPAPVPEVARPTHHPVSSITGQDFSASTPKSSNPPKRKHVEESVLHEQRCGTECMRDDSCSGDSSAQLSSGEHLLGPNRIMAYSRGQTDMCRCSKRSSHRRSQSSLTI
partner: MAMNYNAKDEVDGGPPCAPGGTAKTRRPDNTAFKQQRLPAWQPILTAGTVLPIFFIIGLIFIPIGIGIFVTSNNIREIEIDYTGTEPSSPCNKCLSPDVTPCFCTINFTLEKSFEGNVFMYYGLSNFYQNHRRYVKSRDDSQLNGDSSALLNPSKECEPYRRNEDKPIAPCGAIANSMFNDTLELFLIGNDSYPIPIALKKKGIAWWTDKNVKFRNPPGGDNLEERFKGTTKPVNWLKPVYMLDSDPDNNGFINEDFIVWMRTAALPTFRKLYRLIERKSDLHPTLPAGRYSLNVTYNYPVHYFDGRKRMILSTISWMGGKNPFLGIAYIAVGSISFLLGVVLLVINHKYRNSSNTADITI

Variants of: B1
Settings: with TMEM30A

Effect of a mutation on the interaction, with no effect:
I1038T
V48L
E993A
E210A
G671R;N865K

Reference: IntAct's records for PubMed 32172343
